Data as given in patent publication US20240358826A1 (ORIONIS BIOSCIENCES, published 2024).

Target: human CD8 alpha (human, UniProt P01732 22-235)
Experiment: cell-based or functional assay

Chain of human CD8 alpha (P01732 22-235): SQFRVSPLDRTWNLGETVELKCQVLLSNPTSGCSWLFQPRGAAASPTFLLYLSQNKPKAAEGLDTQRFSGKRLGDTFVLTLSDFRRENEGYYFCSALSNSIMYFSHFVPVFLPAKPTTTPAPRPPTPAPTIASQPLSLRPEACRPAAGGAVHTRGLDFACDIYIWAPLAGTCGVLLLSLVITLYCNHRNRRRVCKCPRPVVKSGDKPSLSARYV

B1: hCD8 VHH 1CDA65_20GGS_IL1α delta 1-6_1GGS_9xhis (other)
chain: QVQLQESGGGLVQPGGSLRLSCAASGSIFSINVMGWYRQTPGKERELVAKITNFGITSYADSAQGRFTISRGNAKNTVYLQMNSLKPEDTAVYYCNLDTTGWGPPPYQYWGQGTQVTVSSVDGGSGGSGGSGGSGGSGGSGGSGGSGGSGGSGGSGGSGGSGGSGGSGGSGGSGGSGGSGGSLSNVKYNFMRIIKYEFILNDALNQSIIRANDQYLTAAALHNLDEAVKFDMGAYKSSKDDAKITVILRISKTQLYVTAQDEDQPVLLKEMPEIPKTITGSETNLLFFWETHGTKNYFTSVAHPNLFIATKQDYWVCLAGGPPSITDFQILENQAGGSHHHHHHHHH
  EC50, CD8+ HekBlue-IL-1β cells (SEAP): ~0.3 ng/mL

B2: IL1α delta 1-6_20GGS_hCD8 VHH 1CDA65_1GGS_9xhis (other)
chain: LSNVKYNFMRIIKYEFILNDALNQSIIRANDQYLTAAALHNLDEAVKFDMGAYKSSKDDAKITVILRISKTQLYVTAQDEDQPVLLKEMPEIPKTITGSETNLLFFWETHGTKNYFTSVAHPNLFIATKQDYWVCLAGGPPSITDFQILENQAGGSGGSGGSGGSGGSGGSGGSGGSGGSGGSGGSGGSGGSGGSGGSGGSGGSGGSGGSGGSQVQLQESGGGLVQPGGSLRLSCAASGSIFSINVMGWYRQTPGKERELVAKITNFGITSYADSAQGRFTISRGNAKNTVYLQMNSLKPEDTAVYYCNLDTTGWGPPPYQYWGQGTQVTVSSVDGGSHHHHHHHHH
  EC50, CD8+ HekBlue-IL-1β cells (SEAP): ~0.3 ng/mL
